From patent publication US20240425837A1 (Novo Nordisk, published 2024) come the findings set out here.

No end group written: not given here.

Experiment in all cases: ELISA, biotinylated 12-mer peptide on streptavidin, 2 ug/mL FLAG-tagged VHH, anti-FLAG-HRP
(An ELISA detects its analyte on a solid surface through an enzyme-linked reagent.)

Assay [1] deals with T1, FX activation peptide 12-mer SVAQATSSSGEA (SEQ ID NO:693) (human).
T1 peptide: SVAQATSSSGEA-biotin
How it is done: (§1) To determine whether the binding epitope of the anti-FX VHH polypeptide designated “cmpd #1” are located inside the activation peptide (AP) of human FX (SEQ ID NO:2), an ELISA assay was setup. 41 unique 12-mer peptide fragments spanning the 52 residues of the activation peptide with one amino acid spacing were immobilized in microtiter plate wells followed by incubation with the VHH polypeptide to be tested, and detection of bound ligand was performed by addition of a secondary HRP-labelled antibody.
(§2) The peptides were C-terminally conjugated to biotin and 50 μL of 1 μg/mL peptide solution was used for immobilization in discrete wells of the microtiter plate which was pre-coated with 1 μg/mL streptavidin. Each well was washed with washing buffer (10 mM Tris, 150 mM NaCl, 2.5 mM CaCl₂, 0.05% Tween 20, pH 8.60) followed by addition of 50 μL of 2 μg/mL FLAG-tagged anti-FX VHH polypeptide or IgG antibody to be tested. After 1 hour non-bound VHH polypeptide was washed off using washing buffer.
(§3) Bound anti-FX activation peptide ligand was detected by first binding a HRP-labelled secondary antibody (for FLAG-tagged VHH polypeptide: Anti-FLAG mAb M2-Peroxidase (HRP) (Sigma Aldrich, US) for 1 hour, and then adding 100 μL TMB-1 ELISA substrate (Kem-En-Tec Diagnostics, Denmark).

The target in assay [2] is T2, FX activation peptide 12-mer AQATSSSGEAPD (SEQ ID NO:695) (human).
T2 peptide: AQATSSSGEAPD-biotin
The procedure:
as §1, §2, §3

The target in assay [3] is T3, FX activation peptide 12-mer SSSGEAPDSITW (SEQ ID NO:699) (human).
T3 peptide: SSSGEAPDSITW-biotin
How it is done:
as §1, §2, §3

Assay [4] deals with T4, FX activation peptide 12-mer SSGEAPDSITWK (SEQ ID NO:700) (human).
T4 peptide: SSGEAPDSITWK-biotin
The procedure: as §1, §2, §3

Assay [5] deals with T5, FX activation peptide 12-mer SGEAPDSITWKP (SEQ ID NO:701) (human).
T5 peptide: SGEAPDSITWKP-biotin
The procedure: as §1, §2, §3

Assay [6] concerns the target T6, FX activation peptide 12-mer APDSITWKPYDA (SEQ ID NO:704) (human).
T6 peptide: APDSITWKPYDA-biotin
How it is done: as §1, §2, §3

In assay [7] the target is T7, FX activation peptide 12-mer DSITWKPYDAAD (SEQ ID NO:706) (human).
T7 peptide: DSITWKPYDAAD-biotin
How it is done: as §1, §2, §3

Assay [8] deals with T8, FX activation peptide 12-mer SITWKPYDAADL (SEQ ID NO:707) (human).
T8 peptide: SITWKPYDAADL-biotin
The procedure: as §1, §2, §3

The target of assay [9] is T9, FX activation peptide 12-mer ITWKPYDAADLD (SEQ ID NO:708) (human).
T9 peptide: ITWKPYDAADLD-biotin
The procedure:
as §1, §2, §3

The target in assay [10] is T10, FX activation peptide 12-mer TWKPYDAADLDP (SEQ ID NO:709) (human).
T10 peptide: TWKPYDAADLDP-biotin
How it is done: as §1, §2, §3

For assay [11], the target named is T11, FX activation peptide 12-mer KPYDAADLDPTE (SEQ ID NO:711) (human).
T11 peptide: KPYDAADLDPTE-biotin
How it is done:
as §1, §2, §3

Assay [12] deals with T12, FX activation peptide 12-mer PYDAADLDPTEN (SEQ ID NO:712) (human).
T12 peptide: PYDAADLDPTEN-biotin
The procedure:
as §1, §2, §3

The target of assay [13] is T13, FX activation peptide 12-mer YDAADLDPTENP (SEQ ID NO:713) (human).
T13 peptide: YDAADLDPTENP-biotin
The procedure:
as §1, §2, §3

In assay [14] the target is T14, FX activation peptide 12-mer DLDPTENPFDLL (SEQ ID NO:717) (human).
T14 peptide: DLDPTENPFDLL-biotin
The procedure: as §1, §2, §3

Assay [15] has as its target T15, FX activation peptide 12-mer LDPTENPFDLLD (SEQ ID NO:718) (human).
T15 peptide: LDPTENPFDLLD-biotin
How it is done: as §1, §2, §3

Assay [16] concerns the target T16, FX activation peptide 12-mer DPTENPFDLLDF (SEQ ID NO:719) (human).
T16 peptide: DPTENPFDLLDF-biotin
The procedure: as §1, §2, §3

The target in assay [17] is T17, FX activation peptide 12-mer DLLDFNQTQPER (SEQ ID NO:726) (human).
T17 peptide: DLLDFNQTQPER-biotin
How it is done:
as §1, §2, §3

Assay [18] concerns the target T18, FX activation peptide 12-mer DFNQTQPERGDN (SEQ ID NO:729) (human).
T18 peptide: DFNQTQPERGDN-biotin
How it is done:
as §1, §2, §3

B1: Cmpd #1 (monovalent anti-FX VHH polypeptide, VHH-1.1) (VHH)
VHH: EVQLVESGGGLVQPGGSLRLSCAASGSIGAFDAMGWYRQAPGKQRELVAGIMVSRGNTNYTDSVKGRFTISRDNAKNTVYLQMNSLKPEDTAVYYCKAVKRPGPGYLEVWGQGTLVTVSS
notes: no protractor; FLAG-tagged in the peptide ELISA
In the case of B1, the “ELISA signal normalized relative to the background signal” value is 0.96 fold of background in assay [1]; 0.97 fold of background in assay [2]; 0.86 fold of background in assay [3]; 0.88 fold of background in assay [4]; 0.88 fold of background in assay [5]; 1.06 fold of background in [6]. In addition, the “ELISA signal normalized relative to the background signal” value in assay [7] is 1.08 fold of background; in [8] it was 1.08 fold of background; in assay [9] it was 1.1 fold of background; in assay [10] it was 1.13 fold of background; in [11], 0.8 fold of background; in [12], 0.83 fold of background. Besides, the “ELISA signal normalized relative to the background signal” value was 0.87 fold of background in assay [13]; 1 fold of background in assay [14]; 1.11 fold of background in assay [15]; 4.16 fold of background in assay [16]; 3.08 fold of background in assay [17]; 0.94 fold of background in assay [18].
